Biological target: X18 gp120
Assay: SPR

B1: bNAb F6 Fab (for SPR) (Fab, V domains shown)
VH: QVQLQQWGTGLLKPSETLSLTCAVYGVSLRGYYWTWIRQSPKKGLEWIGEIDEIGRTKYSQSLRSRATLSIDTSKKQFSLRLTSVTAADMATYYCARWRLMMVDEVTRHGMDVWSQGTMVTVSS
VL: DIVMTQSPLSLSVAPGEAASISCRSTQSLLNRNGDNYLEWYLRRPGRSPQLLIYLGSERALGVPDRFSGSGSGRDFTLKISRVEAQDVGTYYCLQTRQGAFTFGQGTKLEIK
Kd: 32.5 nM
